Reference: patent US20240254259A1 (NATIONAL RESEARCH COUNCIL CANADA, published 2024)

Assays:
[1] = target: full length human DPEP-1 displayed on HEK293T / HEK293-6E cells (human) (UniProt P16444); test: flow cytometry, biotinylated negative control VHH at 100 nM on HEK-293T cells overexpressing human DPEP-1, streptavidin-PE; the same number stands in all seven panels
[2] = target: T1, recombinant human DPEP-1 ectodomain (human, UniProt P16444 17-385, chemically biotinylated with NHS-LC-LC-Biotin in the SPR assay); test: SPR single-cycle kinetics; biotinylated h-DPEP1 captured on the chip, VHH flowed over; 1:1 binding model, 25 C; one replicate of three [con't]
T1 construct: range 17-385; The limits 17-385 are given for the immunogen; also called hDPEP-1 ectodomain; hDPEP-1 ECD
T1 sequence (looked up): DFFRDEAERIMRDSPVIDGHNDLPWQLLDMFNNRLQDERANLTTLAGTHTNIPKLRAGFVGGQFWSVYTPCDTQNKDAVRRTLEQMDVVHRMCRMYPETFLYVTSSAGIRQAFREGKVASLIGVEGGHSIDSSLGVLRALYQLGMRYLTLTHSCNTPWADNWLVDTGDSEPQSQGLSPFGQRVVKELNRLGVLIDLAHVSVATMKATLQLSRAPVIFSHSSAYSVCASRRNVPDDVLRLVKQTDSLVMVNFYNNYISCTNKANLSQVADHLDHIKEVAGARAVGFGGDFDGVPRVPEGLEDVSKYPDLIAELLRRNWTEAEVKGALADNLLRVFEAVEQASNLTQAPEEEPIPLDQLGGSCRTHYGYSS
Method: (§1) Recombinant human DPEP-1 was biotinylated as described in Example 3 and captured on CM5 sensorchip surfaces using Biotin CAPture reagent followed by flowing over surfaces VHHs at concentrations ranging from 0.625-10 nM (sdABP02), 2.5-40 nM (sdABP03/05/07), 6.25-100 nM (sdABP06) and 12.5-200 nM (sdABP01/04). Dark lines represent data points, light lines fit to the data. Data were generated in triplicates and data for one replicate set are shown.
(§2) The binding affinity of DPEP-1-specific VHHs was analyzed by surface plasmon resonance (SPR). Recombinant human DPEP-1 (hDPEP-1) ectodomain was chemically biotinylated using EZ-Link™ NHS-LC-LC-Biotin (Thermo Fisher, Cat #21343) following manufacturer instructions. Biotinylated recombinant hDPEP-1 ectodomain was then captured on CM5 sensorchip surfaces using Biotin CAPture reagent followed by flowing over surfaces VHHs at concentrations ranging from 0.625-10 nM (sdABP02), 2.5-40 nM (sdABP03/05/07), 6.25-100 nM (sdABP06) and 12.5-200 nM (sdABP01/04). Dark lines represent data points, light lines fit to the data. Data were generated in triplicates. Diagonal lines represent equilibrium dissociation constants, KDs. KD values (mean±SD) obtained in FIG. 2A are shown in Table 4. sdABP01 binding data gave poor fit to the 1:1 binding model. As a result, its KD could not be determined with certainty. A better fit was observed using the heterogeneous ligand binding model.

[3] = target: T2, full length human DPEP-1 displayed on HEK293T / HEK293-6E cells (human, UniProt P16444 17-385); test: flow cytometry on human DPEP-1-expressing cells, monomeric VHH (Table 8 restating Table 5)
T2 construct: whole, on cells; GPI-anchored on the cell surface; also called hDPEP-1
T2 sequence (looked up): T1 sequence (looked up)
Method: (§3) VHH concentrations at 50% binding, EC₅₀ values, were calculated from graphs and recorded in Table 5.
(§4) Binding of biotinylated VHHs to hDPEP-1 was detected using streptavidin-phycoerythrin (SPE). The binding profile of the anti-DPEP-1 rabbit pAb (Proteintech, Cat #12222-1-AP) positive control is shown as inset. Binding of the rabbit pAb was detected using goat anti-rabbit IgG antibody conjugated to phycoerythrin (Thermo Fisher, Cat #P-2771MP). Graphs in FIG. 3B with similar maximal fluorescence plateau are grouped together and shown in FIG. 3C (A20.1 VHH is shown for comparison). Three independent experiments were performed and data were collected on a Beckman CytoFLEX Analyzer followed by analysis with FlowJo v10.6.2 (TreeStar). EC₅₀ values were calculated from FIG. 3C and recorded in Table 5. Based on the binding measured by flow cytometry, four affinity groups may be identified: medium (sdABP01/03), high (sdABP02/04/07), high-very high (sdABP05), and very high (sdABP06).

[4] = target: T2, full length human DPEP-1 displayed on …; test: flow cytometry, biotinylated VHH titrated on HEK-293-6E cells overexpressing hDPEP-1
Method: as §3, §4

[5] = target: T1, recombinant human DPEP-1 ectodomain; test: SPR, single-cycle kinetics, biotinylated hDPEP-1 ectodomain captured, VHH flowed; mean ± SD of triplicates
Method: as §2

[6] = target: T1, recombinant human DPEP-1 ectodomain; test: SPR single-cycle kinetics; biotinylated h-DPEP1 captured on the chip, VHH flowed over; 1:1 binding model, 25 C; one replicate of three
Method: as §1, §2

**Q.** How did the geometric mean fluorescence intensity (number above the histogram) [1] turn out when “Clostridium difficile toxin A-specific A20.1 VHH” was run?
**A.** 106

B1: sdABP03 (VHH with BAP and His6 tags) (VHH)
VHH: EVQLVESGGGLVQPGGSLRLSCATSEFTLDYYAIGWFRQAPGKEREGVSCISSSGGTTNYADSVKGRFTISSDNAKNTVSLQMNSLRPEDTAVYYCAAARVSAYYLGNYGCLNAEYGYWGQGTQVTVSS
modifications: biotin on the Biotinylation Acceptor Peptide in the flow cytometry and immunoprecipitation assays
notes: Monomeric llama VHH with BAP and His6; also called sdAb03
**Q.** Which results are given for B1?
**A.** Kd [2]: 26.9 nM; koff [2]: 0.0605 s⁻¹; kon [2]: 2.25e+06 M⁻¹ s⁻¹; EC50 [3]: 550 nM; EC50 [4]: 550 nM; Kd [5]: 27 nM

B2: sdABP07 (VHH with BAP and His6 tags) (VHH)
VHH: EVQLVESGGGLVEYGGSLRLSCAASESTLDNYAIAWFRQAPGKEREVVSCVGKSGGRSDYADSVKGRFTISRDNAKNTVYLQMNSLKPEDTAVYSCAARRVWFGGCVLGTSQGQYDYWGQGTQVTVSS
modifications: biotin on the Biotinylation Acceptor Peptide in the flow cytometry and immunoprecipitation assays
notes: Monomeric llama VHH with BAP and His6; also called sdAb07
**Q.** For B2, which Kd [2] is on record?
**A.** 5.05 nM

**Q.** What about the koff [2] of the same molecule?
**A.** 0.00835 s⁻¹

**Q.** What about the kon [2] of the same molecule?
**A.** 1.65e+06 M⁻¹ s⁻¹

**Q.** What about the EC50 [3] of the same molecule?
**A.** 15 nM

**Q.** And the EC50 [4]?
**A.** 15 nM

**Q.** And the Kd [5]?
**A.** 5.09 nM

B3: sdABP06 (VHH with BAP and His6 tags) (VHH)
VHH: EVQLVDSGGGLVQPGGSLRLSCAASGFTFSNYDMSWVRQGPGKGPEWVSIISYVGGLTRYSDSVKGRFTISRDNAKNTLYLQMNSLNTEDTALYYCARVKSMHPTSTTGEYDYRGRGTQVTVSS
modifications: biotin on the Biotinylation Acceptor Peptide in the flow cytometry and immunoprecipitation assays
notes: Monomeric llama VHH with BAP and His6; also called sdAb06
**Q.** With B3 as the molecule, how does the Kd [2] read?
**A.** 5.91 nM

**Q.** And the koff [2]?
**A.** 0.00103 s⁻¹

**Q.** What about the kon [2] of the same molecule?
**A.** 175000 M⁻¹ s⁻¹

**Q.** What about the EC50 [3] of the same molecule?
**A.** 0.96 nM

**Q.** And the EC50 [4]?
**A.** 0.96 nM

**Q.** What about the Kd [5] of the same molecule?
**A.** 6.32 nM

B4: sdABP05 (VHH with BAP and His6 tags) (VHH)
VHH: EVQLVESGGGLVQPGGSLRLSCAASGFTFSTYAMTWVRKAPGKGFEWISSIDSGGGVTLYADSVKGRFTISKDNAKNTLYLQMNNLKPDDTAVYYCVKNYGSTSLQSRGQGTQVTVSS
modifications: biotin on the Biotinylation Acceptor Peptide in the flow cytometry and immunoprecipitation assays
notes: Monomeric llama VHH with BAP and His6; also called sdAb05
**Q.** What does the source list for B4?
**A.** EC50 [3]: 5.3 nM; Kd [6]: 12.8 nM; koff [6]: 0.0276 s⁻¹; kon [6]: 2.15e+06 M⁻¹ s⁻¹; EC50 [4]: 5.3 nM; Kd [5]: 10.6 nM
